For orientation: pKi means −log10 of the Ki, conventionally taken in molar units. A lower pKi goes with a large Ki.

pKi: −log10 of the molar value.

Consider 37 substances from patent US20180251489A1.

The target in this experiment is mucosa-associated lymphoid tissue lymphoma translocation protein 1 (UniProt Q9UDY8). The experiment is described as follows: enzyme inhibition assay, 100 nM MALT1.
mucosa-associated lymphoid tissue lymphoma translocation protein 1, sequence (Q9UDY8 340-789): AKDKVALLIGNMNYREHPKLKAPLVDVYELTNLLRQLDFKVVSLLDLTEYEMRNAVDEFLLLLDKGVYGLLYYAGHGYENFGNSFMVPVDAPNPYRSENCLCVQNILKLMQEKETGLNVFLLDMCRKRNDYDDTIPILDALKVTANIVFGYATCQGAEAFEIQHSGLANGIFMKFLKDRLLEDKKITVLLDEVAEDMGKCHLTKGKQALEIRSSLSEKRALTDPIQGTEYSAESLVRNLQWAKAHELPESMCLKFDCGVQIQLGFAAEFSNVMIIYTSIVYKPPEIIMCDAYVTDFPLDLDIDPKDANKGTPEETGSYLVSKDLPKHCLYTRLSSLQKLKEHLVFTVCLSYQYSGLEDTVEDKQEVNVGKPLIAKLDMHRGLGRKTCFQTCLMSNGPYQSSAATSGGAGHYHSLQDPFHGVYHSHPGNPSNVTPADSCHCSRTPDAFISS
“(S)-N-((S)-1-Fluoro-6-guanidino-2-oxohexan-3-yl)-1-((3-phenylpropanoyl)-L-valyl)pyrrolidine-2-carboxamide (peptide)”: the pKi is 7.37.

In the case of “(S)-N-((S)-1-Fluoro-6-guanidino-2-oxohexan-3-yl)-1-((4-fluorobenzoyl)-L-valyl)pyrrolidine-2-carboxamide (peptide)”, the negative-log Ki (pKi) is 7.89.

Substance “(S)-N-((S)-1-Fluoro-6-guanidino-2-oxohexan-3-yl)-1-((4-isopropylbenzoyl)-L-valyl)pyrrolidine-2-carboxamide (peptide)” had a pKi of 7.66.

In the case of “(S)-N-((S)-1-Fluoro-6-guanidino-2-oxohexan-3-yl)-1-((4-methoxybenzoyl)-L-valyl)pyrrolidine-2-carboxamide (peptide)”, the negative logarithm of the Ki (pKi) was 7.30.

Regarding “(S)-N-((S)-1-Fluoro-6-guanidino-2-oxohexan-3-yl)-1-((4-morpholinobenzoyl)-L-valyl)pyrrolidine-2-carboxamide (peptide)”, the pKi is 7.12.

In turn, “(S)-N-((S)-1-Fluoro-6-guanidino-2-oxohexan-3-yl)-1-((phenylcarbamoyl)-L-valyl)pyrrolidine-2-carboxamide (peptide)” had a negative logarithm of the Ki (pKi) of 7.28.

On to “(S)-N-((S)-1-fluoro-6-guanidino-2-oxohexan-3-yl)-1-((3-(4-methylpiperazin-1-yl)benzoyl)-L-valyl)pyrrolidine-2-carboxamide (peptide)”, for which the pKi was 6.76.

Consider “(S)-N-((S)-1-fluoro-6-guanidino-2-oxohexan-3-yl)-1-((3-(trifluoromethoxy)benzoyl)-L-valyl)pyrrolidine-2-carboxamide (peptide)”, for which the negative-log Ki (pKi) is 7.82.

Consider “(S)-N-((S)-1-fluoro-6-guanidino-2-oxohexan-3-yl)-1-((3-morpholinobenzoyl)-L-valyl)pyrrolidine-2-carboxamide (peptide)”, for which the negative logarithm of the Ki (pKi) is 7.24.

The substance “(S)-N-((S)-1-fluoro-6-guanidino-2-oxohexan-3-yl)-1-((4-(trifluoromethoxy)benzoyl)-L-valyl)pyrrolidine-2-carboxamide (peptide)” had a negative-log Ki (pKi) of 7.57.

As for “(S)-N-((S)-1-fluoro-6-guanidino-2-oxohexan-3-yl)-1-((4-(trifluoromethyl)benzoyl)-L-valyl)pyrrolidine-2-carboxamide (peptide)”, the negative-log Ki (pKi) was 6.88.

Substance “Benzyl (1-((S)-2-(((S)-1-fluoro-6-guanidino-2-oxohexan-3-yl)carbamoyl)pyrrolidine-1-carbonyl)cyclopentyl)carbamate (peptide)” had a pKi of 5.93.

“Benzyl ((2S,3R)-1-((S)-2-(((S)-1-fluoro-6-guanidino-2-oxohexan-3-yl)carbamoyl)pyrrolidin-1-yl)-3-methyl-1-oxopentan-2-yl)carbamate (peptide)” had a negative-log Ki (pKi) of 7.52.

“Benzyl ((R)-2-((S)-2-(((S)-1-fluoro-6-guanidino-2-oxohexan-3-yl)carbamoyl)pyrrolidin-1-yl)-2-oxo-1-(pyridin-3-yl)ethyl)carbamate (peptide)” gave a pKi of 6.84.

“Benzyl ((S)-1-((2S,4R)-2-(((S)-1-fluoro-6-guanidino-2-oxohexan-3-yl)carbamoyl)-4-hydroxypyrrolidin-1-yl)-3-methyl-1-oxobutan-2-yl)carbamate (peptide)” had a pKi of 7.28.

In turn, “Benzyl ((S)-1-((2S,4S)-2-(((S)-1-fluoro-6-guanidino-2-oxohexan-3-yl)carbamoyl)-4-hydroxypyrrolidin-1-yl)-3-methyl-1-oxobutan-2-yl)carbamate (peptide)” had a pKi of 7.31.

Substance “Benzyl ((S)-1-((S)-2-(((S)-1-fluoro-6-guanidino-2-oxohexan-3-yl)carbamoyl)-2-methylpyrrolidin-1-yl)-3-methyl-1-oxobutan-2-yl)carbamate (peptide)” gave a negative-log Ki (pKi) of 6.80.

“Benzyl ((S)-1-((S)-2-(((S)-1-fluoro-6-guanidino-2-oxohexan-3-yl)carbamoyl)piperidin-l-yl)-3-methyl-1-oxobutan-2-yl)carbamate (peptide)” showed a pKi of 7.40.

In the case of “Benzyl ((S)-1-((S)-2-(((S)-1-fluoro-6-guanidino-2-oxohexan-3-yl)carbamoyl)pyrrolidin-1-yl)-1-oxo-3-phenylpropan-2-yl)carbamate (peptide)”, the pKi is 7.12.

“Benzyl ((S)-1-((S)-2-(((S)-1-fluoro-6-guanidino-2-oxohexan-3-yl)carbamoyl)pyrrolidin-1-yl)-3,3-dimethyl-1-oxobutan-2-yl)carbamate (peptide)” showed a pKi of 7.37.

Turning to “Benzyl ((S)-1-((S)-2-(((S)-1-fluoro-6-guanidino-2-oxohexan-3-yl)carbamoyl)pyrrolidin-1-yl)-3-methyl-1-oxobutan-2-yl)(methyl)carbamate (peptide)”, the pKi was 6.09.

Substance “Benzyl ((S)-1-((S)-2-(((S)-1-fluoro-6-guanidino-2-oxohexan-3-yl)carbamoyl)pyrrolidin-1-yl)-3-methyl-1-oxobutan-2-yl)carbamate 2,2,2-trifluoroacetate (peptide)” showed a pKi of 7.40.

As for “Benzyl ((S)-1-((S)-2-(((S)-1-fluoro-6-guanidino-2-oxohexan-3-yl)carbamoyl)pyrrolidin-1-yl)-4-methyl-1-oxopentan-2-yl)carbamate (peptide)”, the pKi was 7.03.

“Benzyl ((S)-1-cyclohexyl-2-((S)-2-(((S)-1-fluoro-6-guanidino-2-oxohexan-3-yl)carbamoyl)piperidin-1-yl)-2-oxoethyl)carbamate (peptide)” showed a pKi of 7.43.

Turning to “Benzyl ((S)-1-cyclohexyl-2-((S)-2-(((S)-1-fluoro-6-guanidino-2-oxohexan-3-yl)carbamoyl)pyrrolidin-1-yl)-2-oxoethyl)carbamate (peptide)”, the pKi was 7.36.

The substance “Benzyl ((S)-2-((S)-2-(((S)-1-fluoro-6-guanidino-2-oxohexan-3-yl)carbamoyl)pyrrolidin-1-yl)-2-oxo-1-(pyridin-3-yl)ethyl)carbamate (peptide)” gave a negative logarithm of the Ki (pKi) of 7.26.

As to “Benzyl ((S)-2-((S)-2-(((S)-1-fluoro-6-guanidino-2-oxohexan-3-yl)carbamoyl)pyrrolidin-1-yl)-2-oxo-1-phenylethyl)carbamate (peptide)”, the pKi was 6.81.

In turn, “N-((S)-1-((S)-2-(((S)-1-Fluoro-6-guanidino-2-oxohexan-3-yl)carbamoyl)pyrrolidin-1-yl)-3-methyl-1-oxobutan-2-yl)-1-methyl-1H-pyrazole-4-carboxamide (peptide)” had a pKi of 7.00.

On to “N-((S)-1-((S)-2-(((S)-1-Fluoro-6-guanidino-2-oxohexan-3-yl)carbamoyl)pyrrolidin-1-yl)-3-methyl-1-oxobutan-2-yl)-2-methylthiazole-4-carboxamide (peptide)”, for which the negative-log Ki (pKi) is 7.28.

Substance “N-((S)-1-((S)-2-(((S)-1-Fluoro-6-guanidino-2-oxohexan-3-yl)carbamoyl)pyrrolidin-1-yl)-3-methyl-1-oxobutan-2-yl)-2-morpholinothiazole-4-carboxamide (peptide)” had a pKi of 6.95.

The substance “N-((S)-1-((S)-2-(((S)-1-fluoro-6-guanidino-2-oxohexan-3-yl)carbamoyl)pyrrolidin-1-yl)-3-methyl-1-oxobutan-2-yl)-5-phenylthiazole-2-carboxamide (peptide)” had a pKi of 6.92.

With “N-((S)-1-((S)-2-(((S)-1-fluoro-6-guanidino-2-oxohexan-3-yl)carbamoyl)pyrrolidin-1-yl)-3-methyl-1-oxobutan-2-yl)isoquinoline-6-carboxamide (peptide)”, the pKi is 7.23.

In turn, “N-((S)-1-((S)-2-(((S)-1-fluoro-6-guanidino-2-oxohexan-3-yl)carbamoyl)pyrrolidin-1-yl)-3-methyl-1-oxobutan-2-yl)isoquinoline-7-carboxamide (peptide)” showed a pKi of 6.96.

“N-((S)-1-((S)-2-(((S)-1-fluoro-6-guanidino-2-oxohexan-3-yl)carbamoyl)pyrrolidin-1-yl)-3-methyl-1-oxobutan-2-yl)quinoline-2-carboxamide (peptide)” had a pKi of 7.26.

On to “N-((S)-1-((S)-2-(((S)-1-fluoro-6-guanidino-2-oxohexan-3-yl)carbamoyl)pyrrolidin-1-yl)-3-methyl-1-oxobutan-2-yl)quinoline-3-carboxamide (peptide)”, for which the negative-log Ki (pKi) was 7.40.

“N-((S)-1-((S)-2-(((S)-1-fluoro-6-guanidino-2-oxohexan-3-yl)carbamoyl)pyrrolidin-1-yl)-3-methyl-1-oxobutan-2-yl)quinoline-4-carboxamide (peptide)” had a negative logarithm of the Ki (pKi) of 6.86.

On to “benzyl ((S)-1-(((S)-1-(((S)-1-fluoro-6-guanidino-2-oxohexan-3-yl)amino)-3-hydroxy-1-oxopropan-2-yl)amino)-3-methyl-1-oxobutan-2-yl)carbamate (peptide)”, for which the negative-log Ki (pKi) was 7.19.
